Test [1] concerns the target Nbs1 1-382 (UniProt O60934). Put plainly: ITC.
Test [2] deals with Nbs1 (UniProt O60934). Put plainly: far-western with FLAG-Nbs1. The note with it: reference: nonphosphorylated NTD; sites T13.

On to “Rad51 NTD peptide (from UniProt Q06609) pT13 peptide”, for which the KD result in test [1] (reference: nonphosphorylated peptide, sites T13) was “gained; reference no detectable binding”.
For the substance “Rad51 NTD peptide (from UniProt Q06609) pT13/pS14 peptide”, the KD result in test [1] (reference: pS14 peptide, sites T13) is “gained; reference no detectable binding”; in test [1] (reference: pT13 peptide, sites S14), “weaker; reference around 20”.
Regarding “Rad51 NTD, 1-86 (from UniProt Q06609) CK2-phosphorylated NTD”, the “binding against the reference” value in test [2] is on record as “gained”.

The values above are taken from article PMC3280358.
